Results from publication PMC11033462.

Tests used:
[1] = molecular target: PLAA p.Ile609Thr, Myc-tagged (human) (UniProt Q9Y263); assay: co-IP; Myc-PLAA overexpressed in HEK293T, captured from cleared lysate on Myc-beads (4°C, 2 h), eluate probed by western blot (anti-VCP, anti-SAKS1, anti-MYC); p97 band divided by the Myc-PLAA band
[2] = molecular target: PLAA p.Leu795Met, Myc-tagged (human) (UniProt Q9Y263); assay: as above
[3] = molecular target: PLAA p.Ile609Thr, Myc-tagged (human) (UniProt Q9Y263); assay: affinity purification with mass spectrometry; Myc-PLAA overexpressed in HEK293T, captured from cleared lysate on Myc-beads (20 mM HEPES pH 7.5, 100 mM NaCl, 0.2% n-dodecyl-β-D-maltoside, 4°C, 2 h), eluted with 10 M urea, LC-MS/MS; cut off 5-fold enrichment over untransfected controls; protein abundance as a ratio to PLAA
[4] = molecular target: PLAA p.Leu795Met, Myc-tagged (human) (UniProt Q9Y263); assay: as above

VCP/p97 (from UniProt P55072 1-806) (natural protein)
percent decrease of p97 in the IP (ratio to PLAA) against WT PLAA [1]: 80%
percent decrease of p97 in the IP (ratio to PLAA) against WT PLAA [2]: 50%
percent decrease of p97 in the IP (ratio to PLAA) against WT PLAA [3]: 50%
percent decrease of p97 in the IP (ratio to PLAA) against WT PLAA [4]: 20%
